Test results reported in patent US5679525.

Biological target: CBF1 (RBPJK), purified from HeLa (Homo sapiens) (UniProt Q06330)
Experiment: competition

Sequence of CBF1 (RBPJK), purified from HeLa (Homo sapiens) (Q06330 other isoform, or with tags, fused parts or gaps): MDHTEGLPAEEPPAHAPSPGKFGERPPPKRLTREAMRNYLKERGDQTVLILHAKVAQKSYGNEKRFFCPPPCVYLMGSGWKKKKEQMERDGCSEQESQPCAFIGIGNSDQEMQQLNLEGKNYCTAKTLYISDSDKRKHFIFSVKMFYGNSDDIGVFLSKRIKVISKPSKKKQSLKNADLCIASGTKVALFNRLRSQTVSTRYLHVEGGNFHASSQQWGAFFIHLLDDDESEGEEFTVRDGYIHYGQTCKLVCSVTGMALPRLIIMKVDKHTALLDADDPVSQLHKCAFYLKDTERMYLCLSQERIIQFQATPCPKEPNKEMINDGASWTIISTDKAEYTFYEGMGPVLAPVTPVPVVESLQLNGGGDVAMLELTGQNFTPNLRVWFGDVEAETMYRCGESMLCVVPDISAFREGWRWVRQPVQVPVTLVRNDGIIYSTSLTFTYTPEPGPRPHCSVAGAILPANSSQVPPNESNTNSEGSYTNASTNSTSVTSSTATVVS

AAGCATCGTGGATATTCCCGGCACAGCT (double strand) [ELAMp kB-1]
binding signal (% reduction at 10 pmol competitor) (0% at 0.1, 8% at 1.0 pmol): 44

CAAGAGACAGAGTTTCTAAGCTTATTGTAATTTTAAGCATCG (double strand) [Unrelated]
binding signal (% reduction at 10 pmol competitor) (0% at all amounts): 0

GATGCCATTGGGGATTTCCTCTTTACTG (double strand) [ELAM kB-3]
binding signal (% reduction at 10 pmol competitor) (0% at 0.1 and 1.0 pmol): 14

GGAAACACGCCGTGGCTAAAAATTTGGG (double strand) [Cp-Mut]
binding signal (% reduction at 10 pmol competitor) (0% at 0.1 and 1.0 pmol, approx 250-fold weaker than Cp): 19

GGAAACACGCCGTGGGAAAAAATTTGGC (double strand) [Cp (EBV C-promoter EBNA2 responsive element)]
binding signal (% reduction at 10 pmol competitor) (EMSA competition against Cp probe, 51% at 0.1, 90% at 1.0 pmol): 98

GGACTACCACTGTGCCTTCCTCTGGAGG (double strand) [Heptamer-BamHI]
binding signal (% reduction at 10 pmol competitor) (0% at 0.1 and 1.0 pmol, additional 40-fold reduction versus Heptamer+BamHI): 8

GGACTACCACTGTGGGATCCTCTGGAGG (double strand) [Heptamer+BamHI]
binding signal (% reduction at 10 pmol competitor) (0% at 0.1, 31% at 1.0 pmol, approx 16-fold weaker than Cp): 75

TATATGCCCGGGAAAGTTTTTGTATTCC (double strand) [ELAMp kB-2]
binding signal (% reduction at 10 pmol competitor) (2% at 0.1, 27% at 1.0 pmol): 51

TCCTTCAGCCCTGTGGGAACTTGCTGCT (double strand) [CD23p]
binding signal (% reduction at 10 pmol competitor) (22% at 0.1, 70% at 1.0 pmol, approx 2.5-fold weaker than Cp): 91
